# From patent publication US9151744B2, “Lung tissue model” (Pécsi Tudományegyetem, priority 2009, dated 2015)
# B1: Wnt11: Wnt11 protein, applied as supernatant (SN) of A549 cells transfected with lentiviral full-length Wnt11-IRES-GFP construct (protein, UniProt O96014 1-354, looked up)
# chain: MRARPQVCEALLFALALQTGVCYGIKWLALSKTPSALALNQTQHCKQLEGLVSAQVQLCRSNLELMHTVVHAAREVMKACRRAFADMRWNCSSIELAPNYLLDLERGTRESAFVYALSAAAISHAIARACTSGDLPGCSCGPVPGEPPGPGNRWGGCADNLSYGLLMGAKFSDAPMKVKKTGSQANKLMRLHNSEVGRQALRASLEMKCKCHGVSGSCSIRTCWKGLQELQDVAADLKTRYLSATKVVHRPMGTRKHLVPKDLDIRPVKDSELVYLQSSPDFCMKNEKVGSHGTQDRQCNKTSNGSDSCDLMCCGRGYNPYTDRVVERCHCKYHWCCYVTCRRCERTVERYVCK
# modifications: full-length
# notes: Wnt11 protein, applied as supernatant (SN) of A549 cells transfected with lentiviral full-length Wnt11-IRES-GFP construct
# Experiments:
# [1] = test system: SAEC-NHLF lung micro-tissue; experiment: Wnt11 SN treatment of 3D lung micro-tissue: haematoxilin-eosin morphology; assay type: cell-based, human; conditions: 3D micro-tissue, 72 hours, vs control A549 SN
# Procedure: (§1) Primary SAEC, NHLF and pulmonary HMVEC cells were purchased from Lonza. All cell types were isolated from the lungs of multiple random donors of different sexes and ages. We used SAGM, FGM or EGM-2 medium for the initial expansion of SAEC, NHLF or pulmonary HMVEC, respectively, as recommended by the manufacturer. All types of cell cultures were incubated in an atmosphere containing 5% CO2, at 37° C. For 2D and 3D culturing, pure or mixed cell populations were cultured in a 50-50% mixture of SAGM (Small Airway Growth Medium, Lonza) and complete DMEM. For two and three-cell cultures containing HMVEC cells, the appropriate growth factor supplements for HMVEC cells were added to the 50-50% mixture of SAGM and DMEM. The compositions of cell culture media were prepared in accordance with instructions of the manufacturer. For 2D and 3D culturing, cells were mixed at the indicated ratios and dispensed onto flat-bottom 6 well plates or 96-well V-bottom plates (Sarstedt), respectively. V-bottom plates were immediately centrifuged after cell seeding at 600×g for 10 minutes at room temperature.
# Retroviral infection. Retroviral supernatants were generated from retroviral vectors containing Wnt11-GFP, or green fluorescence protein (GFP) only, in 293 cells. […]
# [2] = test system: SAEC-NHLF lung micro-tissue; experiment: Wnt11 treatment of 3D SAEC-NHLF lung micro-tissue: marker expression (qRT-PCR, PCR, immunofluorescence); assay type: cell-based, human; conditions: for AQP3 expression / E-cadherin expression / N-cadherin expression (EMT marker) / S100A4 expression (EMT marker) / SLUG expression (EMT marker): 3D cultures, Wnt11 SN vs control SN, mRNA in sorted lung epithelium; for pro-SFTPC protein expression: immunofluorescence, 3D micro-tissue, 72 hours, vs control SN
# Procedure: as §1
# SAEC and NHLF were stained with CFSE and DiI according to manufacturers instructions (Molecular probes). Cells were mixed and cultured for 72 hours in 2D and 3D systems. Stained cells were dissociated by mild trypsin treatment followed by PBS+EDTA treatment. Dissociated cells were sorted using a BD FACSVantage cell sorter into tubes with lysis buffer for mRNA preparation (Miltenyi Biotech).
# After culturing cells in 3D for 3 days, micro-tissues were carefully removed from the V-bottom plates and fixed in 4% formaline for 10 minutes at room temperature. Fixed samples were covered with TissueTech cryostate embedding medium and 8 μm thick frozen sections were made. Sections were permeabilized in PBS buffer containing 0.1% saponine and 5% BSA for 30 minutes. Primary and secondary antibodies were diluted in the same buffer and incubated with the samples for 1-1 hour. Fluorescent images were acquired using an Olympus IX-81 fluorescent microscope. To ensure the comparability of expression levels of SFTPC, AQP3 and N-cad in Wnt11-SN— or Wnt11 siRNA-treated samples to their matched untreated controls, all images were captured with the same exposition settings.
# Retroviral infection. Retroviral supernatants were generated from retroviral vectors containing Wnt11-GFP, or green fluorescence protein (GFP) only, in 293 cells. Epithelial cell line A549 was transformed using the above viruses in 24-well-plates, in 250 μl of viral supernatant and 50 μl of DMEM polybrene mix (final conc.: 8 μg/ml)/well, and then centrifuged for 60 min at 2100 rpm at room temperature. The cells were incubated for 3 days in fresh DMEM containing 10% FCS, then sorted based on GFP expression using FACSVantage cell sorter (BD Biosciences). GFP positive cells were then cultured as described above. The presence of Wnt11 protein were verified by immunoblotting and immunofluorescence using Wnt11 specific polyclonal antibody (AbCam) (FIG. 7).
# All samples were set up in duplicates. Briefly, Ct values were determined for each sample using an automatic threshold level determined by the 7500 System SDS Software. Delta Ct (dCt) values were determined according to the following formula: dCt(target gene)=Ct(target gene)−Ct(housekeeping gene). Changes in gene expression are shown as RQ values calculated using the next formula: RQ=2^−ddCt, where ddCt values were calculated as ddCt=dCt(sample)−dCt(reference sample).
molecule,measurement,setting,value
B1,epithelial cell morphology (HE staining),[1],increased number of cells with cuboid-like morphology
same,AQP3 expression,[2],up-regulation
same,E-cadherin expression,[2],up-regulation
same,N-cadherin expression (EMT marker),[2],down-regulation
same,S100A4 expression (EMT marker),[2],down-regulation
same,SLUG expression (EMT marker),[2],down-regulation
same,AQP3 expression,[2]; listed as Wnt11 SN,increased
same,E-cadherin expression,[2]; listed as Wnt11 SN,increased
same,N-cadherin expression (EMT marker),[2]; listed as Wnt11 SN,decreased
same,S100A4 expression (EMT marker),[2]; listed as Wnt11 SN,decreased
same,SLUG expression (EMT marker),[2]; listed as Wnt11 SN,decreased
same,SFTPA mRNA levels,"[2]; PCR, Wnt11 treated cultures vs untreated control",significant increase
same,surfactant expression (ATII type differentiation of alveolar epithelium),"[2]; all studied culture conditions, in the presence of fibroblasts",drastic boost
same,pro-SFTPC protein expression,[2],radical increase
same,pro-SFTPC protein expression,[2]; listed as Wnt11 SN,dramatic increase
